Each block holds one binder with its values, some of them ahead of it.
Tests used:
[1] = biological target: T1, Wildtype E. coli full-length DnaK (E. coli, UniProt P0A6Y8 1-638); assay: NMR titration; HMQC spectra of 2H, 13C-methyl ILV labelled protein, 25 °C; nucleotide free; 40 μM NBD^1–392 T199A plus 40 μM GrpE or truncated variants, or 60 μM DnaK plus 80 μM GrpE or truncated variants; conditions: both partners purified
T1 construct: Escherichia coli Hsp70 DnaK, wildtype, full length; 2H, ILV 13C-methyl labelled and nucleotide free in the NMR experiments

[2] = biological target: T2, DnaK nucleotide-binding domain NBD^1–392 T199A (E. coli, UniProt P0A6Y8 1-392, T199A); assay: as above; conditions: both partners purified
T2 construct: Nucleotide free unless specified; Used unlabelled in SPR and 2H-15N labelled or 2H, ILV 13C-methyl labelled in NMR; also called DnaK NBD; wildtype NBD

DnaK NBD^1–392 Y285R = DnaK NBD^1–392 Y285R (E. coli, UniProt P0A6Y8 1-392, T199A | Y285R); assay: SPR; Biacore T-200, NTA sensor chip activated with Ni2+; N-terminal His-tagged GrpE immobilised; nucleotide-free NBD^1–392 T199A or its variants perfused at diverse concentrations; control without GrpE subtracted; equilibrium and kinetic fits; conditions: both partners purified
[3] = biological target: DnaK NBD^1–392 Δ285 to 295 (E. coli, UniProt P0A6Y8 1-392, T199A | Δ285 to 295); assay: as above; conditions: both partners purified
[4] = biological target: T2, DnaK nucleotide-binding domain …; assay: as above; conditions: both partners purified
DnaK NBD^1–392 Q260R = DnaK NBD^1–392 Q260R (E. coli, UniProt P0A6Y8 1-392, T199A | Q260R); assay: as above; conditions: both partners purified
[5] = biological target: T1, Wildtype E. coli full-length DnaK; assay: not stated; data not shown; nucleotide-free DnaK/GrpE

- binding result [1]: binds
- binding result [2]: binds
B1: GrpE^69–197 (domain or fragment, E. coli, UniProt P09372 69-197, looked up)
chain: MENLRRRTELDIEKAHKFALEKFINELLPVIDSLDRALEVADKANPDMSAMVEGIELTLKSMLDVVRKFGVEVIAETNVPLDPNVHQAIAMVESDDVAPGNVLGIMQKGYTLNGRTIRAAMVTVAKAKA
notes: lacks the N-terminal disordered tail and a portion of the coiled-coil domain; 2H-labelled for the 1H-15N HSQC experiments; also called truncated GrpE variant; source: E. coli BL21(DE3), purified (Ni-NTA, TEV cleavage, second Ni-NTA)

- Kd (DnaK NBD^1–392 Y285R): 120 ± 10 nM
- koff (DnaK NBD^1–392 Y285R): 0.0178 s⁻¹
- kon (DnaK NBD^1–392 Y285R): 24000 M⁻¹ s⁻¹
- Kd [3]: 440 ± 60 nM
- koff [3]: 0.0158 s⁻¹
- kon [3]: 39000 M⁻¹ s⁻¹
- Kd [4]: 3.8 ± 0.6 nM
- koff [4]: 0.021 s⁻¹
- kon [4]: 5.9e+06 M⁻¹ s⁻¹
- Kd (DnaK NBD^1–392 Q260R): 4.1 ± 0.3 nM
- koff (DnaK NBD^1–392 Q260R): 0.0231 s⁻¹
- kon (DnaK NBD^1–392 Q260R): 5.6e+06 M⁻¹ s⁻¹
B2: N-terminal His-tagged GrpE (natural protein, E. coli, UniProt P09372 1-197, looked up)
chain: MSSKEQKTPEGQAPEEIIMDQHEEIEAVEPEASAEQVDPRDEKVANLEAQLAEAQTRERDGILRVKAEMENLRRRTELDIEKAHKFALEKFINELLPVIDSLDRALEVADKANPDMSAMVEGIELTLKSMLDVVRKFGVEVIAETNVPLDPNVHQAIAMVESDDVAPGNVLGIMQKGYTLNGRTIRAAMVTVAKAKA
notes: Held on the Ni-NTA sensor chip by its His tag in SPR; source: E. coli BL21(DE3), purified (Ni-NTA); not shown: His tag, N-terminal, kept

- Kd [5]: 3 nM
B3: GrpE, full-length wildtype, His tag cleaved (natural protein, E. coli, UniProt P09372 1-197, looked up)
chain: B2 chain
notes: Escherichia coli GrpE, nucleotide-exchange factor of DnaK, wildtype, full length; also called full-length GrpE; wildtype GrpE; source: E. coli BL21(DE3), purified (Ni-NTA, TEV cleavage, second Ni-NTA); not shown: His tag, N-terminal, cleaved

Reference: publication PMC10825016, “New insights into the structure and function of the complex between the Escherichia coli Hsp70, DnaK, and its nucleotide-exchange factor, GrpE” (The Journal of Biological Chemistry, 2023)
